US9441223

Biological target: TDP-43 (Homo sapiens) (UniProt Q13148)
Settings: reanalysis of public CLIP-seq; healthy brain; ratio rises to 2.0 in FTLD

TDP-43 (Homo sapiens), sequence (Q13148 whole entry): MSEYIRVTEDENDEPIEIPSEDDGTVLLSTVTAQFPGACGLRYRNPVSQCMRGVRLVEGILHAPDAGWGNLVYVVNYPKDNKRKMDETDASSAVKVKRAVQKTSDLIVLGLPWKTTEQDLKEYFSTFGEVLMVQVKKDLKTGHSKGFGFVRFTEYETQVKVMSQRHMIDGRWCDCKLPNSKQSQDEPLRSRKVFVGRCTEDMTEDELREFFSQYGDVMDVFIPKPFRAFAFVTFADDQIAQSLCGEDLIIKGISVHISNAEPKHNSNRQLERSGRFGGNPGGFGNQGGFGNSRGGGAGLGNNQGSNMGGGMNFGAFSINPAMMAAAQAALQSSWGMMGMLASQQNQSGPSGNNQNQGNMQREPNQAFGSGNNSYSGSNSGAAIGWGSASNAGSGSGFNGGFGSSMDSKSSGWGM

## UGUGU [UGUGU pentamer motif]
  binding signal (RefGene/repeat motif enrichment ratio): 1.3
